From the DeepSol protein solubility set

Experiment: soluble on expression in E. coli; label from the status in PepcDB or PDB records

Sequence | soluble on expression in E. coli
MGSDKIHHHHHHMTYTSLQSPADKDYLYDIRVAHLYGNLLNTYGDNGNVLMLKYVGEKLGIRMTFDIVSIGDDFDANKYDMVFFGGGQDYEQSIVAKDLPNKRSAIASFIQNNKVVLAICGGFQLLGQYYVQANGVRIDGIGVMGHYTLNQKDNRYIGDIKIHNDEFNETYYGFENHQGRTFLSDDEKPLGRVIYGNGNNKEDGSEGVHYKNVFGSYFHGPILSRNANLAYRLVTTALHNKYGIDIQLPRYEDILSLEVAEEYGDVKSKAEFEK | not soluble
MDFRANLQRQVKPKTVSEEERKVHSPQQVDFRSVLAKKGTSKTPVPEKVPPPKPATPDFRSVLGGKKKLPAENGSSSAETLNAKAVESSKPLSNAQPSGPLKPVGNAKPAETLKPMGNAKPAETLKPMGNAKPDENLKSASKELKKDVKNDVNCKRGHAGTTDNEKRSESQGTAPAFKQKLQDVHVAEGKKLLLQCQVSSDPPATIIWTLNGKTLKTTKFIILSQEGSLCSVSIEKALPEDRGLYKCVAKNDAGQAECSCQVTVDDAPASENTKAPEMKSRRPKSSLPPVLGTESDATVKKKPAPKTPPKAAMPPQIIQFPEDQKVRAGESVELFGKVTGTQPITCTWMKFRKQIQESEHMKVENSENGSKLTILAARQEHCGCYTLLVENKLGSRQAQVNLTVVDKPDPPAGTPCASDIRSSSLTLSWYGSSYDGGSAVQSYSIEIWDSANKTWKELATCRSTSFNVQDLLPDHEYKFRVRAINVYGTSEPSQESELTTVGEKPEEPKDEVEVSDDDEKEPEVDYRTVTINTEQKVSDFYDIEERLGSGKFGQVFRLVEKKTRKVWAGKFFKAYSAKEKENIRQEISIMNCLHHPKLVQCVDAFEEKANIVMVLEIVSGGELFERIIDEDFELTERECIKYMRQISEGVEYIHKQGIVHLDLKPENIMCVNKTGTRIKLIDFGLARRLENAGSLKVLFGTPEFVAPEVINYEPIGYATDMWSIGVICYILVSGLSPFMGDNDNETLANVTSATWDFDDEAFDEISDDAKDFISNLLKKDMKNRLDCTQCLQHPWLMKDTKNMEAKKLSKDRMKKYMARRKWQKTGNAVRAIGRLSSMAMISGLSGRKSSTGSPTSPLNAEKLESEEDVSQAFLEAVAEEKPHVKPYFSKTIRDLEVVEGSAARFDCKIEGYPDPEVVWFKDDQSIRESRHFQIDYDEDGNCSLIISDVCGDDDAKYTCKAVNSLGEATCTAELIVETMEEGEGEGEEEEE | soluble
MGSDKIHHHHHHMTSDDLLPYGYIDAHHHVWAPDSHGDAIGYGWLRDIGAMKPFGDPTPIQRDYLMAEFLSEAPDAPRASVHVQTDGTLPDPVAETRFVQAQADATDHPVKIVGLADLGAEDLTGTLDRHAESRDFCGVRQIAARLDHRPDLTFAPQDYLADEQWVNGLKILEDRGLTFDLQIYPEQAEAALEALSATPALTVIIDHALCPYDPAKITQWQAAVALMAARDNTFIKLSGWGMYDAEWDLNGGVSVQPLVSHILERFGADRVMWGSNFPVEKLATRYETCRDVHLDMVPEDAHQDVFFNSAAKTYGLTLT | not soluble
MATANEHLVAWLRDAHAMEEQAITMLTSQSSRLENYPELKTRIDRHLQETKDQAAMLERCLERLDGGTSSIKDISGKIVAFGQGLSGLFVSDEVVKGTLASYTFEHMEIASYRILIAAAEQAGDQETKRVCESILQQEIAMAEWLAQNAGEITRKFLERDQRDVTAKH | not soluble
MGSDKIHHHHHHMQLKQSIYFHSPIFLQNILTTIYGRVLYQERYGPVYQKRLQELKEKERFQTNAQAEQLARLNQFLLFCQTYSPYYQELFEQHRITLPLETLDELKQIPILSKEILRTRNADVHAKIRAPILGKTGGTTGKSIQVHYTKEDMQIRMAHLDYFKWTHGIERGMRRASFTGQTLAAESQKAPVYWRMNKAINQMLFTIKNINPQTAALYIEQLNRFNPESIDGLPSGMIEVARHAKKYNIPCTFRPKAIFPTAEMMTAAERQLIEEVFHAPIFDQYASSEGAPIVAECRYGKKHLHYEMGIIEVEEDGQILVTSFDTHGTPLVRYRVGDRMTLSEATCQCGHAGPVIASIDGRGRSFIQLKDGHRIFEGELAGIVRAFPNCIERVQYIQSDKEEIVMLYVPDERCFKEEHEKELYFVLKRLFGGQMEVLLRAVPEIPKEISGKTLLIKQLLLEKS | not soluble
MGFGFRHILTEREFTRSFAIQRKLKVIAEEIKADVIITHDTGCTTTFEKNQWIGKAHGMYYPVAVMSDVMFSALACGAHPFKVVQLYWNCSNYEPLLEKMGITNWRELKKEWEDTVKYIAELEKQGKYDELLEFFKEYDLYEPYSKTSDGFKLRKSATADLPLFKS | not soluble
FEPDDVTEDVIEWVYSTFDGSYDEQPFGGDWTDPEPFRWPVTRRQAVQALDHFVTNRLTEFGSYQDAMLEDEWAMSHSLLSTSLNLGLLGPAEVIERAITAYEDGDAPLNSVEGFIRQVLGWREFLRHVYRREM | not soluble
LGGVAPEQVAYAVEQAGKRLQERDNAGVKVRPARLTDLDALEGMVAYWAGLGENLPRNRNELVRDIGSFAVAEHHGEVTGCASLYVYDSGLAEIRSLGVEAGWQSQGQGKAIVQHLVEKAREMAIKKVFVLTRVPEFFMKQDFIPTSRSLLPEKVLKDCDQCPRQH | not soluble
MGSDKIHHHHHHMKIILTTSMSGLGGTETATVRLGRLLKRHGHDIILASSDGPFVGEAQASGIRWQPVDFYRGGLAGYLKSTFAYARMLRREQPDIIDCQMARVVPACALAAKIVSPKTKIICHSHGLDAATYPKTAKLFDKLGAYIIGNCKHEREKLIRHGFPAGRIAYAYNTPPEFHFRKTEKECAVLGTLSRLDTVRAVHLMLDILKKMVGRNIPVRLNMAGIGEEMDNLKAQAKRLGIEDKVTFLGGVRDLTGYFKEVDILVNTPHCVGDHGAGVGNNILEAGLYDTPVVTYNMAGISEMVITGQTGYCIPFGDDEAFIEAVDTLIKHPELRSQMGKALHKHVETLCSDDEIYRTTMAAYEM | not soluble
MLGAMFRAGTPMPPNLNSQGGGHYFIDRDGKAFRHILNFLRLGRLDLPRGYGETALLRAEADFYQIRPLLDALRELEASQGTPAPTAALLHADVDVSPRLVHFSARRGPHHYELSSVQVDTFRANLFCTDSECLGALRARFGVASGDRAEGSPHFHLEWAPRPVELPEVEYGRLGLQPLWTGGPGERREVVGTPSFLEEVLRVALEHGFRLDSVFPDPEDLLNSRSLRFVRH | soluble
MAHHHHHHMHRNIHGGTASATIANSALVSPPPHTTIPPLPAGMDPTYYALSLLRRRRLEECIAVSTQYLAVFNEKMRLTSSGTQKQADGVDEPLWFIQTRALITQDWFDELDVDNDGVDEVLLDGEQNISSTAHRPGTSLQRKDAPTGTTIPTGMAQRQGTARPISSRYGYVRPGTQSRNRPGTMSIRPITSRMMRIGTASLQAVPGGPHIDVRKLNLEKYGRTKPIVARILCDFLLHVEHRPRMVLELGAIALEQQPKDWWWMSRMGQAYYRLGLLREAERMFKAALTIQENVADVMRLARVFTKMDQPLKALDLLSEASKKNPMDHHLLLHMARLYDQLQDAEKSCQLYRRVLQLDSSNMESIACIAAYMFYEKKQPEIALRLYRRLLQMGVQTTELWNNLGLCCFYSSQYDIALSCLQRAVAISTEDETLADVWYNIGHIGIGTGDLGLAHRAFKVALGANPRHAEALNNLAVLNLNIGQVDQAMNDLAMAIEVSPEQHEPLYNFALLAFKAGNFEKSYKLLTQALEACPDHPESALLQATLRKSLATL | not soluble
MGSDKIHHHHHHMDSLSSILKSVRLQGSVYFNACFASPWGLDLDQNQRAYFHLIIRGACYLQLGDKKEQLQGGDIIILPHGTAHQLFDDPSSVRVNATGVVPGLIDGINPFEGVGHSQDIDILCGYFNFNNSTPSYFLNALPDVIHLTQEHRTHFSFLDNALSFITQETKMKNLGREILIDRVTELLFVQIMRVYININGNEENIFSALSDRTLSEALQLMHTESDKNWTVESLAKAIGMSRSRFSEHFHNYIGETPMRYLHTCRMEVAKQKIEETESTLNIISEEVGYASDSAFKKAFKKFFGNTPSTFRQKNDK | not soluble
MPTFLLVNDDGYFSPGINALREALKSLGRVVVVAPDRNLSGVGHSLTFTEPLKMRKIDTDFYTVIDGTPADCVHLGYRVILEEKKPDLVLSGINEGPNLGEDITYSGTVSGAMEGRILGIPSIAFSAFGRENIMFEEIAKVCVDIVKKVLNEGIPEDTYLNVNIPNLRYEEIKGIKVTRQGKRAYKERVFKYIDPYGKPFYWIAAEEFGWHAEEGTDYWAVLNGYVSVTPLHLDLTNYKVMKSIKYLEDSP | soluble
MGSSHHHHHHSSGLVPRGSHMNQDPTQQLEPFLKRFLASLDLLYTQPTSQPFPNVESYATQLGSNLKRSSAIIVNGQPIIPSPQEDCKLQFQKKWLQTPLSSHQLTSYDGHLIPGTGTFVVHFSAKVRFDQSGRNRLGESADLFQENNSIVSKTNQRPIWGSWFGVDVNLVVDENVMQDGEIINSMDYRFTYVPNDSIIKV | soluble
MTNFRPCFLIPCYNHGKTIPAVVESLMSYGYPMIIVDDGSENETKRILEEVTQHNESITLITLAENQGKGGAVIAGIEKAYQQSYSHAIQIDADGQHDLEALPKLIAESQEHPTALISGQPIYDESVPKSRLYGRYATHIWVWIETLSFTIKDSMCGFRSYPIGPTINVLERAVLGRRMDFDTEIMVRMYWNETDIRFINTRVIYPEDGISHFDALWDNVKISWMHTKLFFGMLPRIPSLLKRKPVQEDHWSSHAERGTILGIQFLLWIYSTFGRKVFSLLLKPVMAYYYLRGGSVKDASDDFIQQVNAYARIKGIQLPEKLTTYRHLVSFGETMLDKLAAWRGDFSDKNLTVHGIEHYQTLAQREKGIVLLGSHLGNLELCRALSRRHTHLKINALVFTEHAERFNTVMKTVNPQSEVNVIQVSKIGPDTAILLQQKIDDGEWIVIVGDRTSVTKENRVIWADFLGKPAPFPQGPFMLASILKQPVYLMFGLRDDTQKDPLFDVYLEPFSEQIILPRGKREEALQEVVQNYAQRLEHFTLKAPSQWYNFFNFWQLTGKKDDNLEHHHHHH | soluble
MMKRARIIYNPTSGRELFKRHLPDVLVRLEKAGYETSCHATEGPGDATKAARQAVLREFDLVVAAGGDGTINEVVNGIADQPYRPKLGVIPVGTTNDFARAIGVPRSIEGACEVIATGEPVPIDIGCVTNEDKTRYFINIAGGGRLTELTYEVPSKLKTMLGQLAYYLKGIEMLPSIKATEAQIEYDGKLFEGEIMMFLVSLTNSVGGFEKLAPDSSLNDGLFDFIIVKKTNLAEFIRLVTLAARGEHINDPHIIYTKANRVKVRSPMQLNLDGEFGGMLPGEFVNLYRHLEVIMPKDKAEQVRTGR | not soluble
MSLGYIMDLRKELPNPHRPLIMCSAGIIIIDKKGRVLLQKRTDNNKWGLPGGSLELGESFEEAAIREAYEEVGLKVKSLSLFNVYSGKECYNKYPNGDEIYNASSIFISNDYEGEVILDGEESADAVFFKKVDIPSLEEVNPPDRIVIKDIIEKLNIEKYEGHHHHHH | not soluble
MASKPEKRVASSVFITLAPPRRDV | soluble
MKSTEKKELSHFRLKLETYLNEHFPEMSGNNPFITARSDEALTAYCDAVAQGFSHPEAESMASEVLYQGLHFSRYDTLVSVLEREFEQELPSPLPERLAPILLKNKAIQSVFAKYDLTDDFEASPEYEHLYTELTGTIVLLIESNHLPTIGGGNDTV | soluble
MGSDKIHHHHHHMATELPSLKGLQAFEAAARYRSVTLASNELNVTPGAVSLQIRELEARLGVQLFFRKPRSIQLTREGERYYGALRTAFRMMREATAELTARSEITVLTLSCTPTFAVQWLMPRLPSFQQQHPHVDVRISVTNRLVDFSRDDVDLAVRHGFGRYEGLESIRFIDDSTLPVCAPQLLEKYGPLREAGDLKSVPLLHDENRNEWRRWLEAAGASEVDASGGTVFIDSNGALDAAKAGHGIALTRRSLVSRELVEGALIAPFGTDMASTLAYFLVYPRRMLDNPDLVTLIDWMLSQAGSTEAGSL | not soluble
